Test results reported in the supplement of paper PMC11246515.
± gives the standard deviation of the averaged measurements.

Assay: total protein half-life in vivo (active degradation + dilution); higher = more stable protein
[1] = E. coli NCM3722 delta-clpP delta-lon delta-hslV, growth: N-lim chemostat, doubling time 6 h
[2] = E. coli NCM3722 delta-clpP, growth: N-lim chemostat, doubling time 6 h
[3] = E. coli NCM3722 delta-hslV, growth: N-lim chemostat, doubling time 6 h
[4] = E. coli NCM3722 delta-lon, growth: N-lim chemostat, doubling time 6 h
[5] = E. coli NCM3722 delta-smpB, growth: N-lim chemostat, doubling time 6 h
[6] = wild type E. coli NCM3722, growth: C-lim chemostat, doubling time 3 h
[7] = wild type E. coli NCM3722, growth: C-lim chemostat, doubling time 6 h
[8] = wild type E. coli NCM3722, growth: C-lim chemostat, doubling time 12 h
[9] = wild type E. coli NCM3722, growth: N-lim chemostat, doubling time 6 h
[10] = wild type E. coli NCM3722, growth: N-lim chemostat, doubling time 12 h
[11] = wild type E. coli NCM3722, growth: P-lim chemostat, doubling time 6 h
[12] = wild type E. coli NCM3722, growth: P-lim chemostat, doubling time 12 h

Sequence | total protein half-life in vivo [1] | total protein half-life in vivo [2] | total protein half-life in vivo [3] | total protein half-life in vivo [4] | total protein half-life in vivo [5] | total protein half-life in vivo [6] | total protein half-life in vivo [7] | total protein half-life in vivo [8] | total protein half-life in vivo [9] | total protein half-life in vivo [10] | total protein half-life in vivo [11] | total protein half-life in vivo [12]
MRHSLPYRMLRKRPMKLSTTVILMVSAVLFSVLLVVHLIYFSQISDMTRDGLANKALAVARTLADSPEIRQGLQKKPQESGIQAIAEAVRKRNDLLFIVVTDMQSLRYSHPEAQRIGQPFKGDDILKALNGEENVAINRGFLAQALRVFTPIYDENHKQIGVVAIGLELSRVTQQINDSRWSIIWSVLFGMLVGLIGTCILVKVLKKILFGLEPYEISTLFEQRQAMLQSIKEGVVAVDDRGEVTLINDAAQELLNYRKSQDDEKLSTLSHSWSQVVDVSEVLRDGTPRRDEEITIKDRLLLINTVPVRSNGVIIGAISTFRDKTEVRKLMQRLDGLVNYADALRERSHEFMNKLHVILGLLHLKSYKQLEDYILKTANNYQEEIGSLLGKIKSPVIAGFLISKINRATDLGHTLILNSESQLPDSGSEDQVATLITTLGNLIENALEALGPEPGGEISVTLHYRHGWLHCEVNDDGPGIAPDKIDHIFDKGVSTKGSERGVGLALVKQQVENLGGSIAVESEPGIFTQFFVQIPWDGERSNR [P0AEC8] | 6.93 ± 0.11 h | 6.33 h | 5.74 ± 0.12 h | 5.85 ± 0.23 h | 5.57 ± 0.62 h | 2.98 ± 0.12 h | 5.883 ± 0.049 h | 11.9 ± 0.56 h | 6.25 ± 0.84 h | 9.85 ± 3 h | 6.32 h | 11.6 ± 0.52 h
MRIEVTIAKTSPLPAGAIDALAGELSRRIQYAFPDNEGHVSVRYAAANNLSVIGATKEDKQRISEILQETWESADDWFVSE [P0ABR1] | 3.596 ± 0.025 h |  | 2.28 h | 2.08 ± 0.25 h |  | 0.937 ± 0.5 h |  |  |  | 0.715 h |  | 0.859 h
MRIGQYQLRNRLIAAPMAGITDRPFRTLCYEMGAGLTVSEMMSSNPQVWESDKSRLRMVHIDEPGIRTVQIAGSDPKEMADAARINVESGAQIIDINMGCPAKKVNRKLAGSALLQYPDVVKSILTEVVNAVDVPVTLKIRTGWAPEHRNCEEIAQLAEDCGIQALTIHGRTRACLFNGEAEYDSIRAVKQKVSIPVIANGDITDPLKARAVLDYTGADALMIGRAAQGRPWIFREIQHYLDTGELLPPLPLAEVKRLLCAHVRELHDFYGPAKGYRIARKHVSWYLQEHAPNDQFRRTFNAIEDASEQLEALEAYFENFA [P0ABT5] | 4.65 ± 0.67 h | 3.28 h |  |  | 2.21 ± 0.077 h | 2.88 ± 0.28 h | 3.67 ± 0.67 h | 6.75 ± 0.78 h | 2.23 h | 3.47 h | 5.13 ± 0.28 h | 8.25 ± 0.84 h
MRILHTSDWHLGQNFYSKSREAEHQAFLDWLLETAQTHQVDAIIVAGDVFDTGSPPSYARTLYNRFVVNLQQTGCHLVVLAGNHDSVATLNESRDIMAFLNTTVVASAGHAPQILPRRDGTPGAVLCPIPFLRPRDIITSQAGLNGIEKQQHLLAAITDYYQQHYADACKLRGDQPLPIIATGHLTTVGASKSDAVRDIYIGTLDAFPAQNFPPADYIALGHIHRAQIIGGMEHVRYCGSPIPLSFDECGKSKYVHLVTFSNGKLESVENLNVPVTQPMAVLKGDLASITAQLEQWRDVSQEPPVWLDIEITTDEYLHDIQRKIQALTESLPVEVLLVRRSREQRERVLASQQRETLSELSVEEVFNRRLALEELDESQQQRLQHLFTTTLHTLAGEHEA [P0AG76] | 5.77 ± 0.37 h | 4.79 ± 1.6 h | 4.67 ± 0.67 h | 4.54 ± 0.071 h | 4.5 ± 0.46 h | 2.6 ± 0.049 h | 5.4 ± 0.27 h | 9.11 ± 1.4 h | 4.54 ± 0.17 h | 7.66 ± 0.56 h | 5.46 ± 0.31 h | 7.9 ± 0.1 h
MRIPRIYHPEPLTSHSHIALCEDAANHIGRVLRMGPGQALQLFDGSNQVFDAEITSASKKSVEVKVLEGQIDDRESPLHIHLGQVMSRGEKMEFTIQKSIELGVSLITPLFSERCGVKLDSERLNKKLQQWQKIAIAACEQCGRNRVPEIRPAMDLEAWCAEQDEGLKLNLHPRASNSINTLPLPVERVRLLIGPEGGLSADEIAMTARYQFTDILLGPRVLRTETTALTAITALQVRFGDLG [P0AGL7] |  | 5.91 ± 0.64 h | 5.44 ± 0.24 h | 5.41 ± 0.067 h | 5.19 ± 0.13 h | 2.98 ± 0.25 h | 6.14 ± 1.9 h | 10.1 ± 2.1 h | 5.45 ± 0.37 h | 10.7 ± 0.42 h | 6.05 ± 0.38 h | 12.31 ± 0.12 h
MRIRYGWELALAALLVIEIVAFGAINPRMLDLNMLLFSTSDFICIGIVALPLTMVIVSGGIDISFGSTIGLCAIALGVLFQSGVPMPLAILLTLLLGALCGLINAGLIIYTKVNPLVITLGTLYLFAGSALLLSGMAGATGYEGIGGFPMAFTDFANLDVLGLPVPLIIFLICLLVFWLWLHKTHAGRNVFLIGQSPRVALYSAIPVNRTLCALYAMTGLASAVAAVLLVSYFGSARSDLGASFLMPAITAVVLGGANIYGGSGSIIGTAIAVLLVGYLQQGLQMAGVPNQVSSALSGALLIVVVVGRSVSLHRQQIKEWLARRANNPLP [P0AFS1] |  |  |  |  |  |  | 6.11 h | 13.4 h |  |  |  | 
MRISLKKSGMLKLGLSLVAMTVAASVQAKTLVYCSEGSPEGFNPQLFTSGTTYDASSVPLYNRLVEFKIGTTEVIPGLAEKWEVSEDGKTYTFHLRKGVKWHDNKEFKPTRELNADDVVFSFDRQKNAQNPYHKVSGGSYEYFEGMGLPELISEVKKVDDNTVQFVLTRPEAPFLADLAMDFASILSKEYADAMMKAGTPEKLDLNPIGTGPFQLQQYQKDSRIRYKAFDGYWGTKPQIDTLVFSITPDASVRYAKLQKNECQVMPYPNPADIARMKQDKSINLMEMPGLNVGYLSYNVQKKPLDDVKVRQALTYAVNKDAIIKAVYQGAGVSAKNLIPPTMWGYNDDVQDYTYDPEKAKALLKEAGLEKGFSIDLWAMPVQRPYNPNARRMAEMIQADWAKVGVQAKIVTYEWGEYLKRAKDGEHQTVMMGWTGDNGDPDNFFATLFSCAASEQGSNYSKWCYKPFEDLIQPARATDDHNKRVELYKQAQVVMHDQAPALIIAHSTVFEPVRKEVKGYVVDPLGKHHFENVSIE | 6.22 ± 0.29 h | 6.39 ± 1.1 h | 6.489 ± 0.018 h | 6.6 ± 0.13 h | 5.83 ± 0.096 h | 3.33 ± 0.069 h | 6.97 ± 1.4 h | 14.3 ± 1.9 h | 6.058 ± 0.029 h | 12.9 ± 0.92 h | 6.06 ± 0.45 h | 13.1 ± 0.31 h
MRITIILVAPARAENIGAAARAMKTMGFSDLRIVDSQAHLEPATRWVAHGSGDIIDNIKVFPTLAESLHDVDFTVATTARSRAKYHYYATPVELVPLLEEKSSWMSHAALVFGREDSGLTNEELALADVLTGVPMVADYPSLNLGQAVMVYCYQLATLIQQPAKSDATADQHQLQALRERAMTLLTTLAVADDIKLVDWLQQRLGLLEQRDTAMLHRLLHDIEKNITK |  | 4 ± 0.61 h | 3.98 ± 0.83 h | 4.08 ± 0.37 h | 3.38 ± 0.046 h |  | 5.62 ± 0.99 h | 7.53 ± 0.58 h | 3.72 ± 0.22 h | 5.26 ± 0.45 h | 4.87 ± 0.26 h | 11.5 ± 2.5 h
